Like-named read-outs stand apart in the source and are kept apart here.

Common to all, as to experiment: cell-based or functional assay
Assay [1] addresses T1, type I interferon-α/β receptor (IFNAR), composed of the IFNAR1 and IFNAR2 subunits (human) (UniProt P17181).
T1 sequence (looked up) 1: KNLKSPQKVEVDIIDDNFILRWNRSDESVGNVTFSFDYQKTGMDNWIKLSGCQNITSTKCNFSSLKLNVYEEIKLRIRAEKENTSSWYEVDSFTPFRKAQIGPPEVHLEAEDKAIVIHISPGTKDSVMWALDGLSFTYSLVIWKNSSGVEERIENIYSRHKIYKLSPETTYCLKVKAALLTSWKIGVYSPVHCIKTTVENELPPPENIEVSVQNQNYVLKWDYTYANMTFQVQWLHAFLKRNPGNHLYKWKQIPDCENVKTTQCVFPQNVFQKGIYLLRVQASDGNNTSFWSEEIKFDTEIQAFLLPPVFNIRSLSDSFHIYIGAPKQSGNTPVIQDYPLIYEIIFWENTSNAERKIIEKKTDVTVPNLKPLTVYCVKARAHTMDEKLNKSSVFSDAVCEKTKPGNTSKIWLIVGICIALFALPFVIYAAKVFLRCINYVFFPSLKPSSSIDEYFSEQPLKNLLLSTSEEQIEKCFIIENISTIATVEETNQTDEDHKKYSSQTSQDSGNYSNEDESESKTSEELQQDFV
T1 sequence (looked up) 2: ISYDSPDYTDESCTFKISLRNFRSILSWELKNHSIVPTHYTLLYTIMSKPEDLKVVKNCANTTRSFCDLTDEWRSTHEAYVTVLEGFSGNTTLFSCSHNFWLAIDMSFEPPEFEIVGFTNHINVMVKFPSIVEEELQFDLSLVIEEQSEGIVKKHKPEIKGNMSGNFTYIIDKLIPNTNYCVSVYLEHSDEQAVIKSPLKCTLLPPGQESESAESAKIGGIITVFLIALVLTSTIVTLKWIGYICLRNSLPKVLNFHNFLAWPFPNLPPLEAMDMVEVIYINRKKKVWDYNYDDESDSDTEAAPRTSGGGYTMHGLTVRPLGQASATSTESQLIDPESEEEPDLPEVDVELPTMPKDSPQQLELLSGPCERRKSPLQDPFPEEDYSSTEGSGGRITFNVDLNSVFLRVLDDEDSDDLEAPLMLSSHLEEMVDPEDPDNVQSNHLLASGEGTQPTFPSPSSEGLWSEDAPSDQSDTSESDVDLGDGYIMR

Assay [2] addresses T1, type I interferon-α/β receptor (IFNAR), composed of the IFNAR1 and IFNAR2 subunits (human). This is another data set of the same source.
In assay [3] the target is T2, type I interferon-α/β receptor (IFNAR), composed of the IFNAR1 and IFNAR2 subunits (human, UniProt P17181 28-557; P48551 27-515).
T2 sequence (looked up) 1: T1 sequence (looked up) 1
T2 sequence (looked up) 2: T1 sequence (looked up) 2

As for “wild type IFNα2a (Example 7) (from UniProt P01563 24-188) (ligand)”, in assay [1], the EC50 6-16 reporter activity, HL116 was 8 pM and the EC50 6-16 reporter activity, HL116-CLEC9A was determined as 6 pM.

B1: wild type interferon alpha 1 (IFNα1) (ligand)
chain: CDLPETHSLDNRRTLMLLAQMSRISPSSCLMDRHDFGFPQEEFDGNQFQKAPAISVLHELIQQIFNLFTTKDSSAAWDEDLLDKFCTELYQQLNDLEACVMQEERVGETPLMNADSILAVKKYFRRITLYLTEKKYSPCAWEVVRAEIMRSLSLSTNLQERLRRKE
In assay [2], B1 came in with an EC50 6-16 reporter activity, HL116 of 105 pM; an EC50 6-16 reporter activity, HL116 (Exp 1) of 2.38 ng/mL; an EC50 6-16 reporter activity, HL116-CLEC9A of 84 pM; an EC50 6-16 reporter activity, HL116-huCD20 (Exp 1) of 3.25 ng/mL. Besides, in assay [2], the EC50 of luciferase (6-16 reporter) induction in HL116-CLEC9A cells is 1.6 ng/mL; the EC50 of luciferase (6-16 reporter) induction in parental HL116 cells is 2 ng/mL; the EC50 pSTAT1 in PBMC's, CD20 negative (Exp 1) amounted to 7.51 ng/ml; the EC50 pSTAT1 in PBMC's, CD20 negative (Exp 2) worked out at 6.77 ng/ml. Moreover, in assay [2], the EC50 pSTAT1 in PBMC's, CD20 positive (Exp 1) is 3.97 ng/ml; the EC50 pSTAT1 in PBMC's, CD20 positive (Exp 2) was 2.72 ng/ml; the fold decrease in potency in 6-16 reporter induction relative to IFNα2 is 10 to 15 fold; the ratio CD20 neg/pos of EC50 6-16 reporter activity (Exp 1) was 0.7. Besides, in assay [2], the ratio CD20 neg/pos of EC50 pSTAT1 in PBMC's (Exp 1) came to 2; the ratio CD20 neg/pos of EC50 pSTAT1 in PBMC's (Exp 2) is 2.5; the ratio of EC50 6-16 reporter activity, HL116 / HL116-CLEC9A stood at 1.2.

B2: CD20 VHH-(GGS)20-hIFNα1-His6 (other)
chain: QVQLQESGGGLAQAGGSLRLSCAASGRTFSMGWFRQAPGKEREFVAAITYSGGSPYYASSVRGRFTISRDNAKNTVYLQMNSLKPEDTAVYYCAANPTYGSDWNAENWGQGTQVTVSSVDGGSGGSGGSGGSGGSGGSRSGGSGGSGGSGGSGGSGGSGGSGGSGGSGGSGGSGGSGGSAAACDLPETHSLDNRRTLMLLAQMSRISPSSCLMDRHDFGFPQEEFDGNQFQKAPAISVLHELIQQIFNLFTTKDSSAAWDEDLLDKFCTELYQQLNDLEACVMQEERVGETPLMNADSILAVKKYFRRITLYLTEKKYSPCAWEVVRAEIMRSLSLSTNLQERLRRKELEHHHHHH
With B2, in assay [3], the “EC50 6-16 reporter activity, HL116-huCD20 (Exp 1)” value was 0.0241 ng/mL; the “EC50 pSTAT1 in PBMC's, CD20 positive (Exp 1)” value was 0.114 ng/ml; the “EC50 pSTAT1 in PBMC's, CD20 positive (Exp 2)” value amounted to 0.085 ng/ml.
